Reference: US20230287084A1
Blank lines part the entries; values can stand above or below the substance they belong to.

Key:
Assay in all cases: cell-based or functional assay
GDF-11 = target: T1, GDF-11 (UniProt O95390)
T1 sequence (looked up): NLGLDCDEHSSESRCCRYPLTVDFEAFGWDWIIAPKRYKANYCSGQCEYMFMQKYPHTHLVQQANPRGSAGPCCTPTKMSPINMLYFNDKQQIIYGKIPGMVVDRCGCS

activin B = target: T2, activin B (UniProt P09529)
T2 sequence (looked up): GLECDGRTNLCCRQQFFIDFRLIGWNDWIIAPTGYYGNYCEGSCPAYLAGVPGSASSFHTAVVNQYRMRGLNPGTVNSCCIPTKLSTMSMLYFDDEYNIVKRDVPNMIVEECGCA

activin A = target: T3, activin A (UniProt P08476)
T3 sequence (looked up): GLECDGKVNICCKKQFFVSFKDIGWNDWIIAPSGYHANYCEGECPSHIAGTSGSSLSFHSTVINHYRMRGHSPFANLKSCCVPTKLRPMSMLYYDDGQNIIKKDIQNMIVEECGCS

BMP-10 = target: T4, BMP-10 (UniProt O95393)
T4 sequence (looked up): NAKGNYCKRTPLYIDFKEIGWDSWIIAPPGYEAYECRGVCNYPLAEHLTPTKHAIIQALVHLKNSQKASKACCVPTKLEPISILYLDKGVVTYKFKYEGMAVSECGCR

BMP-9 = target: T5, BMP-9 (UniProt Q9UK05)
T5 sequence (looked up): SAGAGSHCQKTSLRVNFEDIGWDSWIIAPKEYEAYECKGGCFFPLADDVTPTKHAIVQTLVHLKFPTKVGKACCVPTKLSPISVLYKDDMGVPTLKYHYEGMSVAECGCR

GDF-8 = target: T6, GDF-8 (UniProt O14793)
T6 sequence (looked up): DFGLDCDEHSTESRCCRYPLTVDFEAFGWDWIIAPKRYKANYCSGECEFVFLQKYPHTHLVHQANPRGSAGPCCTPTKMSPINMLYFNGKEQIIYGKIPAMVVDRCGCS

Substance: P444 (wild type human ActRIIA-ECD-Fc) (Fc fusion)
Avg IC50, GDF-11 neutralization (HEK293 TGFβ-reporter) (GDF-11): 1.6 nM
Avg IC50, activin B neutralization (HEK293 TGFβ-reporter) (activin B): 0.95 nM
Avg IC50, activin A neutralization (HEK293 TGFβ-reporter) (activin A): 2.7 nM
Average IC50, BMP-10 neutralization (HepG2 BMP-reporter) (BMP-10): 3.7 nM
Average IC50, BMP-9 neutralization (HepG2 BMP-reporter) (BMP-9): 248 nM
IC50, BMP-9 neutralization (HepG2 BMP-reporter) (BMP-9): > 100 nM
Avg IC50, GDF-8 neutralization (HEK293 TGFβ-reporter) (GDF-8): 3.1 nM
IC50, GDF-8 neutralization (HEK293 TGFβ-reporter) (GDF-8): 3.06 nM

Substance: P761 (hActRIIB - K31Y, 14aa linker, IgG1 FcDL) (Fc fusion)
% decrease of potency relative to P124 (GDF-11): 61%
Avg IC50, GDF-11 neutralization (HEK293 TGFβ-reporter) (GDF-11): 8.6 nM
% decrease of potency relative to P124 (activin B): 88%
Avg IC50, activin B neutralization (HEK293 TGFβ-reporter) (activin B): 41 nM
% decrease of potency relative to P124 (activin A): 58%
Avg IC50, activin A neutralization (HEK293 TGFβ-reporter) (activin A): 8.4 nM
Average IC50, BMP-10 neutralization (HepG2 BMP-reporter) (BMP-10): 22 nM
% increase of potency relative to P124 (BMP-9): 83%
Average IC50, BMP-9 neutralization (HepG2 BMP-reporter) (BMP-9): 8.7 nM
% decrease of potency relative to P124 (GDF-8): 64%
Avg IC50, GDF-8 neutralization (HEK293 TGFβ-reporter) (GDF-8): 12 nM

Substance: P757 (WT hActRIIB, 14aa linker, IgG1 FcDL) (Fc fusion)
% increase of potency relative to P75 (GDF-11): 124%
Avg IC50, GDF-11 neutralization (HEK293 TGFβ-reporter) (GDF-11): 0.34 nM
% increase of potency relative to P75 (activin B): 155%
Avg IC50, activin B neutralization (HEK293 TGFβ-reporter) (activin B): 0.55 nM
% increase of potency relative to P75 (activin A): 389%
Avg IC50, activin A neutralization (HEK293 TGFβ-reporter) (activin A): 0.47 nM
% increase of potency relative to P75 (BMP-10): 67%
Average IC50, BMP-10 neutralization (HepG2 BMP-reporter) (BMP-10): 1.2 nM
% increase of potency relative to P75 (BMP-9): 900%
Average IC50, BMP-9 neutralization (HepG2 BMP-reporter) (BMP-9): 0.27 nM
% increase of potency relative to P75 (GDF-8): 116%
Avg IC50, GDF-8 neutralization (HEK293 TGFβ-reporter) (GDF-8): 0.31 nM

Substance: P718 (hActRIIB - D57E + F58E, 3aa linker, IgG1 FcDL) (Fc fusion)
Avg IC50, GDF-11 neutralization (HEK293 TGFβ-reporter) (GDF-11): > 1000 nM
Avg IC50, activin B neutralization (HEK293 TGFβ-reporter) (activin B): > 1000 nM
Avg IC50, activin A neutralization (HEK293 TGFβ-reporter) (activin A): > 1000 nM
Average IC50, BMP-10 neutralization (HepG2 BMP-reporter) (BMP-10): > 1000 nM
Average IC50, BMP-9 neutralization (HepG2 BMP-reporter) (BMP-9): > 1000 nM
Avg IC50, GDF-8 neutralization (HEK293 TGFβ-reporter) (GDF-8): > 1000 nM

Substance: P694 (hActRIIB - F58Y, 14aa linker, IgG1 FcDL) (Fc fusion)
Avg IC50, GDF-11 neutralization (HEK293 TGFβ-reporter) (GDF-11): 0.73 nM
Avg IC50, activin B neutralization (HEK293 TGFβ-reporter) (activin B): 1.3 nM
Avg IC50, activin A neutralization (HEK293 TGFβ-reporter) (activin A): 0.79 nM
Average IC50, BMP-10 neutralization (HepG2 BMP-reporter) (BMP-10): 1.9 nM
Average IC50, BMP-9 neutralization (HepG2 BMP-reporter) (BMP-9): 1.8 nM
Avg IC50, GDF-8 neutralization (HEK293 TGFβ-reporter) (GDF-8): 0.65 nM

Substance: P758 (hActRIIB - G27D, 14aa linker, IgG1 FcDL) (Fc fusion)
Avg IC50, GDF-11 neutralization (HEK293 TGFβ-reporter) (GDF-11): 1.4 nM
Avg IC50, activin B neutralization (HEK293 TGFβ-reporter) (activin B): 2.4 nM
Avg IC50, activin A neutralization (HEK293 TGFβ-reporter) (activin A): 1.1 nM
Average IC50, BMP-10 neutralization (HepG2 BMP-reporter) (BMP-10): 1.9 nM
Average IC50, BMP-9 neutralization (HepG2 BMP-reporter) (BMP-9): 1.2 nM

Substance: P75 (wild type human ActRIIB-ECD-Fc) (Fc fusion)
Avg IC50, GDF-11 neutralization (HEK293 TGFβ-reporter) (GDF-11): 0.76 nM
Avg IC50, activin B neutralization (HEK293 TGFβ-reporter) (activin B): 1.4 nM
Avg IC50, activin A neutralization (HEK293 TGFβ-reporter) (activin A): 2.3 nM
Average IC50, BMP-10 neutralization (HepG2 BMP-reporter) (BMP-10): 2 nM
Average IC50, BMP-9 neutralization (HepG2 BMP-reporter) (BMP-9): 2.7 nM
Avg IC50, GDF-8 neutralization (HEK293 TGFβ-reporter) (GDF-8): 0.67 nM

Continued, values first:

Avg IC50, GDF-11 neutralization (HEK293 TGFβ-reporter) (GDF-11): 0.9 nM
Avg IC50, activin B neutralization (HEK293 TGFβ-reporter) (activin B): 1.4 nM
Avg IC50, activin A neutralization (HEK293 TGFβ-reporter) (activin A): 0.9 nM
Average IC50, BMP-10 neutralization (HepG2 BMP-reporter) (BMP-10): 2.4 nM
Average IC50, BMP-9 neutralization (HepG2 BMP-reporter) (BMP-9): 60 nM
Avg IC50, GDF-8 neutralization (HEK293 TGFβ-reporter) (GDF-8): 0.83 nM
Substance: P715 (hActRIIB - F58W, 14aa linker, IgG1 FcDL) (Fc fusion)

Avg IC50, GDF-11 neutralization (HEK293 TGFβ-reporter) (GDF-11): 0.42 nM
Avg IC50, activin B neutralization (HEK293 TGFβ-reporter) (activin B): 0.66 nM
Avg IC50, activin A neutralization (HEK293 TGFβ-reporter) (activin A): 0.62 nM
Average IC50, BMP-10 neutralization (HepG2 BMP-reporter) (BMP-10): 1.4 nM
Average IC50, BMP-9 neutralization (HepG2 BMP-reporter) (BMP-9): 110 nM
Avg IC50, GDF-8 neutralization (HEK293 TGFβ-reporter) (GDF-8): 0.55 nM
Substance: P708 (hActRIIB - F58Q, 14aa linker, IgG1 FcDL) (Fc fusion)

Avg IC50, activin A neutralization (HEK293 TGFβ-reporter) (activin A): 0.42 nM
fold increase of inhibition potency relative to P1218 (activin A): 2.6 fold
Average IC50, BMP-9 neutralization (HepG2 BMP-reporter) (BMP-9): 58 nM
Avg IC50, GDF-8 neutralization (HEK293 TGFβ-reporter) (GDF-8): 0.29 nM
fold increase of inhibition potency relative to P1218 (GDF-8): 2.8 fold
Substance: P709 (hActRIIB - F58Q, 39aa linker, IgG1 FcDL) (Fc fusion)

Avg IC50, activin A neutralization (HEK293 TGFβ-reporter) (activin A): 4.3 nM
Average IC50, BMP-9 neutralization (HepG2 BMP-reporter) (BMP-9): 657 nM
fold lower inhibition potency relative to P444 (BMP-9): 2.6 fold
Avg IC50, GDF-8 neutralization (HEK293 TGFβ-reporter) (GDF-8): 2.1 nM
fold higher inhibition potency relative to P444 (GDF-8): 1.5 fold
Substance: P698 (hActRIIB - F58K, 3aa linker, IgG1 FcDL) (Fc fusion)

Avg IC50, GDF-11 neutralization (HEK293 TGFβ-reporter) (GDF-11): 0.58 nM
Avg IC50, activin B neutralization (HEK293 TGFβ-reporter) (activin B): 2.3 nM
Avg IC50, activin A neutralization (HEK293 TGFβ-reporter) (activin A): 0.63 nM
Average IC50, BMP-10 neutralization (HepG2 BMP-reporter) (BMP-10): 1.7 nM
Average IC50, BMP-9 neutralization (HepG2 BMP-reporter) (BMP-9): > 100 nM
Avg IC50, GDF-8 neutralization (HEK293 TGFβ-reporter) (GDF-8): 0.61 nM
Substance: P719 (hActRIIB - Q29Y + F58E, 14aa linker, IgG1 FcDL) (Fc fusion)

Avg IC50, GDF-11 neutralization (HEK293 TGFβ-reporter) (GDF-11): 27 nM
Avg IC50, activin B neutralization (HEK293 TGFβ-reporter) (activin B): > 1000 nM
Avg IC50, activin A neutralization (HEK293 TGFβ-reporter) (activin A): > 1000 nM
Average IC50, BMP-10 neutralization (HepG2 BMP-reporter) (BMP-10): > 1000 nM
Average IC50, BMP-9 neutralization (HepG2 BMP-reporter) (BMP-9): > 1000 nM
Avg IC50, GDF-8 neutralization (HEK293 TGFβ-reporter) (GDF-8): 66 nM
Substance: P762 (hActRIIB - V75Q, 14aa linker, IgG1 FcDL) (Fc fusion)

Avg IC50, GDF-11 neutralization (HEK293 TGFβ-reporter) (GDF-11): 0.75 nM
Avg IC50, activin B neutralization (HEK293 TGFβ-reporter) (activin B): 0.55 nM
Avg IC50, activin A neutralization (HEK293 TGFβ-reporter) (activin A): 0.52 nM
Average IC50, BMP-10 neutralization (HepG2 BMP-reporter) (BMP-10): 0.96 nM
Average IC50, BMP-9 neutralization (HepG2 BMP-reporter) (BMP-9): 386 nM
Avg IC50, GDF-8 neutralization (HEK293 TGFβ-reporter) (GDF-8): 1.1 nM
Substance: P701 (hActRIIB - F58K, 14aa linker, IgG1 FcDL) (Fc fusion)

Avg IC50, GDF-11 neutralization (HEK293 TGFβ-reporter) (GDF-11): 0.54 nM
Avg IC50, activin B neutralization (HEK293 TGFβ-reporter) (activin B): 2.7 nM
Avg IC50, activin A neutralization (HEK293 TGFβ-reporter) (activin A): 0.97 nM
Average IC50, BMP-10 neutralization (HepG2 BMP-reporter) (BMP-10): 2.3 nM
Average IC50, BMP-9 neutralization (HepG2 BMP-reporter) (BMP-9): 914 nM
Avg IC50, GDF-8 neutralization (HEK293 TGFβ-reporter) (GDF-8): 0.77 nM
Substance: P720 (hActRIIB - D30Q + F58E, 14aa linker, IgG1 FcDL) (Fc fusion)

% increase of potency relative to P120 (GDF-11): 86%
Avg IC50, GDF-11 neutralization (HEK293 TGFβ-reporter) (GDF-11): 137 nM
% increase of potency relative to P120 (activin B): 77%
Avg IC50, activin B neutralization (HEK293 TGFβ-reporter) (activin B): 227 nM
% increase of potency relative to P120 (activin A): 73%
Avg IC50, activin A neutralization (HEK293 TGFβ-reporter) (activin A): 274 nM
Average IC50, BMP-10 neutralization (HepG2 BMP-reporter) (BMP-10): > 1000 nM
Average IC50, BMP-9 neutralization (HepG2 BMP-reporter) (BMP-9): > 1000 nM
% increase of potency relative to P120 (GDF-8): 60%
Avg IC50, GDF-8 neutralization (HEK293 TGFβ-reporter) (GDF-8): 397 nM
Substance: P759 (hActRIIB - D57E, 14aa linker, IgG1 FcDL) (Fc fusion)
